# Measured values taken from the nanobody polyreactivity screen of Harvey et al. (2022).
# Test: yeast display, Sf9 membrane polyspecificity reagent, FACS + sequencing; frameworks hold sequencing errors
# Outline: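 Galactose-induced (36–48 hours) yeast carrying a synthetic nanobody display library were exposed to 10% biotinylated, detergent-solubilized Sf9 membrane reagent at 4 °C for 1 hour. FACS followed streptavidin microbead enrichment, using low and high (top ~1%) gates for expression (anti-HA) and reagent binding (streptavidin). Colony PCR, MiSeq 2 × 250 sequencing and CDR-length filtering followed. Labels for polyreactivity reflect the gate of origin.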
row,Sequence,polyreactivity (PSR sort gate)
1,QVQLGESGGGLVPARGSLRLSRAASGSTFTTNAMGWYRQAPGKEREFVAAITSSGGSTYYADSVKGRFTISRDNAKNTVYLQMNSLNPEDTAVYYCIADGDPSQKLFGRSYDYWGQGTQVTVSS,low polyreactivity
2,QVQLVESGGGLVQAGGSLRLSCAASGRTLHKNVMGWYRQAPGKERELVAAINTGGRTYYADSVKGRFTISRDNAKNTVYLQMNSLKREDTAVYYCAKEGHVNPRPTVGGDYWGQGTQVTVSS,low polyreactivity
3,QVQLVESGGGLVQAGGSLRLSCAASGRTFRANAMGWYRQAPGKERELVAAISKRGGNTYYADSVKGRFTISRDNAKYTVYLQMNSLKPEDTAVYYCAAHFIGRDYDYWGQGTQVTVSS,high polyreactivity
4,QVQLHESGGGLVQAGGSLRLSCAASGTISQEDWMGWYRKAPRKEREFVAAIGLGSNTNYADSLKGRFTISRDNANNTVYLQMNSLKPEDTAVYYCAVSVWQYSDHVYRGQGTQVTVSS,low polyreactivity
5,QVQLVESGGGLDQAGGSLRLSSAASGSIFLPNAMGWYRQAPGKEREFVADISWTGGRTYYADSVKGRFTISRDNAKHTVYLQMNRLKQEDTAVYYCAAKQYRYGLDYWGQGTQVTVSS,high polyreactivity
6,QVQLVESGGGLVQAGGSLRLSCAASGSTFAVYAMGWYRQAPGKERELVAAITWSGGSTYYADSVKGRFTISRDNAKNTVYFQMNSLKPEDTAVYYCAAAGYYSDMDYWGQGTQVTVSS,low polyreactivity
7,QVQLVESGGGLVQAGGSLRLSCDASGRTFRYYAMGWYRQAPGKEREMVAAITRSGGSTYYADSVKGRFTISRDNAKNTVYLQMNSLKAVDTAVYYCAESRFYSYGIDYDYWGQGTQVTVSS,high polyreactivity
8,QVQLVESGGGLVQAGVSLRLSCAASGRTFVSNAMGWYRQAPGKEREFVAAIRDSGGRTYYADSVKGRFTISRDNANNTVYLQMTSLIPEDTAVYYCATRGVSPSRPGYYWGQGTQVTVSS,high polyreactivity
9,QVQLVESGGGLVQAGGSLRLSCAASGLILVHYAMGWYRQAPGKERELVAAISAGGGSTYYADSVKGRFTISRDNAKNTVYLQMTSLKPEDTAVYYCNARVVNYFRPRTGAREYDYWGQGTQVTVSS,high polyreactivity
10,QVQLVESGGRIVQAGGSLRLSCAASGRTFPINAMGWYRQAPGKERELVASIRWTDGTTYYADSVKGRFTISRDNAKNTVYLQMNSLKPEDTAVYYCAADAEGSASKYDYWGQGTQVTVSS,low polyreactivity
11,QVQLVESGGGLVQAGCSLRLSCAASGIIFGYYAMGWYRQAPVKERELVAAISSRGSRTYYSDSLKGRFTISRDNAKNTVYLQMNSLIPEDTAVYYCAVRGKFDYWGQGTQVTVSS,high polyreactivity
12,QVQLVESGGGLVQAGGSLRLSCAPSGRIFAGYAMGWYRQAHGKERELVAAISWRGTSTYYADSVKGRFTISRDNAKNTVYLQMNSLKPEDTAVYYCAARYTKGMYYWGQGTQVTVSS,high polyreactivity
13,QVQLVESGGGLVQAGGSLRLSCAASGRTFYYYVMGWYRQAPGKERELVAAINSGGNTNYADSVKGRFTISRDNAKNTVYLQMNSLKPEDTAVYYCAADHYRSFRYFESSSTHDYWGQGTQVNVSS,low polyreactivity
14,QVQLVESGGGLVQAGGSLRLSCAASGSIFPWYAMGWYRQAPGKERELVAAISTGGSTYYADSVKGRFTISRDNAKNTVYLQMNSLKPEDTAVYYCAAAYGKYRFGYWGQGTQVTVSS,high polyreactivity
15,QVQLVESGGGLVQAGGSLRLSCADSGITFDWNTMGWYRQAPGKERELVAAITFRSGSTYYADSVKGRFTISRDNAKNTVYLQMNSLKPEDTAVYYCNKDTAYTSPRFDYWGQGTQVTVSS,high polyreactivity
16,QVQLVESGGGLVQAGGSLRLSCAASGSIFVYYAMGWYRQAPGKERELVAAINSSGGRTYYADSVKGRFTISRDNAKNTVYLQMNSLKPEETAVYYCAAVYRYWTSYNGRNYWGQGTQVTVSS,high polyreactivity
17,QVQLVESGGGLVQAGGSLRLSCAASGFTFDNYVMGWYRQAPGKERELVAAISKSGTSTYYADSVKGRFTISRDNAKNTVYLQMNSLKPEDTAVYYCAAELPGYYYAYDYWGQGTQVTVSS,high polyreactivity
18,QVQLVESGGGLVQAGGSLRLTCAASGSTLKSYAMGWYRQAPGKERELVAAITRSGARTYYADSVQGRFTISRDNAKNTVYFQMNSLKPEDTAVYYCNRVGYQYGSDQEDDYWGQGTQVTVSS,high polyreactivity
19,QVQLVESGGGLVQAGGSLRLSCAASGFTFYSYAMGWYRQAPGKERELVAAITKRGGSTSYADSVKGRFTISRDNAKNTVYLQMNSLKPEDTAVYYCNRRATKAQYGDEVDYWGQGTQVTVSS,high polyreactivity
20,KVQLVESGGGLVQAGGSHRLSSAASGSTFDGYVMGLYRPAPGKERELVDAISSTGTRTYYADSVKGRFTISRDNATNTFYLQINSMKPEDTAVYYCAAEIDYRYRTVSYYYWGQGSQVTVSS,low polyreactivity
21,QVQLVESGGGLVQAGGSLRLSCAASGSTFDYNAMGWYRQAPGKERELVAAISARGTSTYYADSVKGRFTISRDNAKTTVYLQMNSLKPEDTAVYYCAARIHTAYYIFGYWGQGTQVTVSS,high polyreactivity
22,QVQLVESGGGLVQAGGSLRLTCAASGFIFYKYAMGWYRQAPGKERELVAAISRGGGSTYYADSVKGRFTISRDNAKNTVYLQMNSLKPEETAVYYCAAQAFIVRPSYVPRHNYWGQGTQVTVSS,high polyreactivity

row,Sequence,polyreactivity (PSR sort gate)
1,QLQLVESGRGLVQAGGSLRLSCAASVRTFTCYTMGSYRQAPGKEREFVAAIRKSGGSTYYADSVKGRFTISRDNAKNTVYLQMNSLKPEDTAVYYCAAERLYGYWKYIGYDWGQGTQVTVSS,high polyreactivity
2,QVQLVDSAGGLVQAGGSLRLSCAASGSIFFRYAMGGYRQAAGKERELVAAITQRTGSTYYADSVKGRFTISRDNAKITVYLQMNSLKPEDTAVYYCAAKRWRRSFTGNYWGQGTQVTVSS,high polyreactivity
3,QVQLVESGGGLVQAGGSLRLSFAASGSILSYYAMGWYTQAPGKERELGAAISKSGGRTYYADSVKGRFTISRDNEKNTVYLQMNSLKPEDTAVYYCAADRYYLSRRPVQNGNEYWGQGTQVTVSS,high polyreactivity
4,QVQLVESGGGLVQAGGSLRLSCAASRSTFVLYDMGWYRPAPGKERELVAAISRSGDSTYYADSVKGRYTISRDNAKNTVYLQMNSLKPEDTAVYYCAAKRRISTGMDYWGQGTQGTVSS,high polyreactivity
5,QVQLVESGGGLVPAGGSLRLSCAASGSTFVGNAMGWYRQAPGKERELVAAISSGGSTNYADSVKGRFTISRDNAKNTVYLQMNSLKPEDTAVYYCNAVYFYWLYGFSYFATGITYDYWGQGTQVTVSS,high polyreactivity
6,QVQIVESRGGLVQAGGSLRLSCDASGRTILIYAMGWYRQAPRKERELVAAITSGGRTKYADSVKGRFTISRDNGKNTVFLQMNSQKPEDTAVYYCAAESNRLRYYYWGQGSQVTVSS,high polyreactivity
7,QVQLVESGGGLVQAGGSLRLSCAASGRTFGAYAMGWYRQAPGTERELVAAISSSGGSTYYADSVKGRFTISRDNAKNTVYLQMNSLKPEDTAVYYCAKGWHRGVGFGYWGQGTQVTVSS,high polyreactivity
8,QVQLVESGGGVVQAGGSLRLSCAASGRICVRYAMGWYRQAPGKERELVAAISTRGGSTYYADSVKGRFTISRDNAKYTVYFQMNSLKPEDTAVYYCAARGVGPQPGYQRFNYWGQGTQVTVSS,high polyreactivity
9,KVQLVESGGGLVQAGGSLRLSCAASGRILVYNVMGWYRQAPGKEMEFVAAITSRDTSTYYADSVKGRFTISRDNAKNPVYLQMNSLKPEDTAVYYCAVRVGARVRYYSWGQGTQVTVSS,high polyreactivity
10,QVQLVESGGGLVQAGGSLRLSCAASGSIFAKYAMGWYRQAPGKESEFVAAIRASGGRTYYADSVKGRFTISRDNAKNTVYLQMNSLKPEDTAVYYCAAHLYSSRSDYDGPRSRRNYWGQGTQVTVSS,high polyreactivity
11,QDQLVESGGGLVQAGGSLRLSCAASGIFPYYAMGGYRQAPGTEREFVAAITRSGGSTYYADSVKGRFTISRDNAKKTVYLQMNSLKPEDTAVYYCNKRYGYTGFSPRYDYWGQGTQVTVSS,low polyreactivity
12,QVQLVESGAGLVQAGGSLRLSCAASGSTFRPNVMGWSRQAPGKERELVAAITYSGRSTYYADSVKGRFTISRDNAKNTVYLQMNTLKPEDTAVYYCAARTWLRYCYWGQGTQVTVSS,high polyreactivity
13,QVQLVESGGGLVQAGGSLRLSCAASGITFFRYTMGWYRQAPGKERELVAAINIRGTRTYYADSVKGRFTISRDNAKNTVYLQMNSLKPEDTAVYYCAAGYAYRYSGLSYDVDYWGQGTQVTVSS,high polyreactivity
14,QVQLQESGGGLVQVGGSQRLSCAASGNIFYNYAMGWYRHAHGKEREFDATINHGTSINYADSVKGRFTISRDNAKNTVYLQMNSLKPEDTAVYYCAADLSWTDNLFYWGQGTQVTVSS,low polyreactivity
15,QVQLVESGGGLVQAGGSLRLSCAASGITFSRYAMGWYRQAPGKERELVAAISKRGGRTYYADSVKGRFTISRDNAKKTDYLQMNSLKPEDTAVYYCATDYYVSTDYNYWGQGTQVTVSS,high polyreactivity
16,QVQLVESGGGLVQAGGSLRLSCAASGSIFGPYAMGWYRQAPGKERELVAAISNGGTTYYADSVKGRFTISRDNAKYTVYLQMNSLKPEDTAVYYCNAEQYLYYILGNYDYWGQGTQVTVSS,low polyreactivity
17,QVQLVESGGGLVQAGGSLRLSCAASGRTFFTYAMGWYRQAPGKERELVASITRSGVSTYYADSVKGRFTISRDNAKNTVYFQMNSLKPEDTAVYYCNTRYPYYWPIYGYWGQGTQVTVSS,high polyreactivity
18,QVQVVESGGGLVQAGGSLRLSCAASGFTFPYYALGLYRQAPGKERELVAAITTGGSTYYSDSVKGRFTISRDNAKNTVYLQMNSLKPEDTAVYYCATGPSLWYRSSFRGEGDYWGQGTQVTVSS,low polyreactivity
19,QVQLVESGGGLVQAGGSLRLSCAASGYIFNKYVMGWYRQAPGKERELVAAISASGGSTYYADSVKGRFTISRDNAKNTVYLQMNSLKPEDTAVYYCAATLYRRMDYWGQGTEVTVSS,high polyreactivity
20,QVQHVESGGGLVQAGGSLRLRCAASGSIFYINAMGWYRQAPGQERELVAAITSDGSTYYADSVKGRFTISGDNAKNSVYLQINSLKPEDTAVYYCAADLTSDQYVYYWYWFYSWGQGTQVTVSS,low polyreactivity
21,QVQLVESGGGLVQPGGSLRLSCAASGSIFGYNAMGWYRPAPGKERELVAVITRSDGSTYYADSVKGRFTISRDNAKNTVYLQMNSLKPEDTAVYYCNAETHVYYWGVVIYEYNYWGQGTQVTVSS,low polyreactivity
